Measurements from patent US20250346895A1, “GENETIC SEQUENCE-CARBOHYDRATE CONJUGATES FOR ENHANCED LIVER- AND KIDNEY-SPECIFIC TARGETING” (University of Connecticut, priority 2022, published 2025).

What was measured:
HepG2 cells = assay: In vitro cellular uptake in HepG2 cells; assay type: cell-based
[1] = Kidney-targeted delivery of full-length (22mer) anti-miR-21 PNA: biodistribution (IVIS, flow cytometry); assay type: in vivo, C57BL/6J mice
Method: FIG. 9 illustrates that LBAAc ligand efficiently delivered a 22mer long PNA sequence to the kidney. […] PNA 6 contains succinic acid (SA) at 5′ end for conjugation with LBA-lysine conjugate. Lysine (K) was added on the 3′ end of the PNA followed by fluorescent probe 5-carboxytetramethylrhodamine (TAM) of each PNA. 000 represents the trioxo-miniPEG linker. […] Radiant Efficiency for TAMRA fluorescence in the kidneys of C57BL6/J mice. Results are represented as mean of n=2 with standard error mean as the error bars.
Full-length (22mer) PNA oligomers were designed and synthesized namely PNA 5, PNA 6 and LBAAc conjugate (PNA 6-LBAAc) to target miR-21 (FIG. 9A). PNA 6 was conjugated with LBAAc as described in FIG. 2A.
Biodistribution evaluation of PNA 5 and PNA 6-LBAAc in C57BL/6J mice at a low subcutaneous dose of 1.5 mg/kg (1/10 molar equiv of short PNA 1&2): A lower dose biodistribution was chosen for a comprehensive validation of LBAAc for kidney targeting. […] (FIG. 9D). Results were confirmed by flow cytometry analysis of kidney cells. The kidney cells obtained after RBC lysis were fixed with 4% PFA and analyzed for TAMRA fluorescence. The histogram plots representing the TAMRA fluorescence from 4 and 24 h samples confirmed the elimination of PNA 5 and accumulation of PNA 6-LBAAc in the kidney cells (FIG. 9C). […] Possibly the Tmax for kidney accumulation of PNA 6-LBAAc is >4 h. Decisively, the higher concentration of PNA 6-LBAAc in the kidney at 24 h compared to 4 h time point against PNA 5 confirmed the kidney targeting and potential of the LBAAc ligand.

Compound | cellular uptake (HepG2 cells) | organ distribution of TAMRA fluorescence signal (IVIS) ([1]; 1.5 mg/kg subcutaneous) | overall pharmacokinetics / biodistribution ([1]; 1.5 mg/kg subcutaneous) | increase in kidney retention compared to unconjugated PNA 5 ([1]; 1.5 mg/kg subcutaneous, 24 h) [fold] | kidney concentration at 24 h ([1]; 1.5 mg/kg subcutaneous, 24 h) | TAMRA fluorescence in kidney cells (flow cytometry) ([1]; 4 and 24 h samples) | Tmax ([1]; mouse, in vivo, sc, 1.5 mg/kg subcutaneous, read-out: Tmax for kidney accumulation) [h]
O=C(O)[C@H](O)[C@@H](O)[C@H](O[C@@H]1O[C@H](CO)[C@H](O)[C@H](O)[C@H]1O)[C@H](O)CO [LBA, lactobionic acid] | ASGPR mediated cellular uptake | – | – | – | – | – | –
CC(=O)OC[C@H]1O[C@@H](O[C@@H]([C@H](OC(C)=O)[C@@H](OC(C)=O)C(=O)NCCCC[C@H](NC(=O)[C@H](OC(C)=O)[C@@H](OC(C)=O)[C@H](O[C@@H]2O[C@H](COC(C)=O)[C@H](OC(C)=O)[C@H](OC(C)=O)[C@H]2OC(C)=O)[C@@H](COC(C)=O)OC(C)=O)C(=O)NCCCCCCNC(=O)CCC(=O)NCCOCCOCCOCC(=O)NCCN(CC(=O)NCCN(CC(=O)NCCN(CC(=O)NCCN(CC(=O)NCCN(CC(=O)NCCN(CC(=O)NCCN(CC(=O)NCCN(CC(=O)NCCN(CC(=O)NCCN(CC(=O)NCCN(CC(=O)NCCN(CC(=O)NCCN(CC(=O)NCCN(CC(=O)NCCN(CC(=O)NCCN(CC(=O)NCCN(CC(=O)NCCN(CC(=O)NCCN(CC(=O)NCCN(CC(=O)NCCN(CC(=O)NCCN(CC(=O)N[C@@H](CCCCNC(=O)COCCOCCOCCNC(=O)c2ccc(-c3c4ccc(=[N+](C)C)cc-4oc4cc(N(C)C)ccc34)c(C(=O)[O-])c2)C(N)=O)C(=O)Cn2cnc3c(N)ncnc32)C(=O)Cn2cc(C)c(=O)[nH]c2=O)C(=O)Cn2ccc(N)nc2=O)C(=O)Cn2cnc3c(=O)[nH]c(N)nc32)C(=O)Cn2cnc3c(N)ncnc32)C(=O)Cn2cnc3c(N)ncnc32)C(=O)Cn2cc(C)c(=O)[nH]c2=O)C(=O)Cn2cnc3c(N)ncnc32)C(=O)Cn2cnc3c(=O)[nH]c(N)nc32)C(=O)Cn2cc(C)c(=O)[nH]c2=O)C(=O)Cn2ccc(N)nc2=O)C(=O)Cn2cc(C)c(=O)[nH]c2=O)C(=O)Cn2cnc3c(=O)[nH]c(N)nc32)C(=O)Cn2cnc3c(N)ncnc32)C(=O)Cn2ccc(N)nc2=O)C(=O)Cn2cc(C)c(=O)[nH]c2=O)C(=O)Cn2cnc3c(N)ncnc32)C(=O)Cn2ccc(N)nc2=O)C(=O)Cn2cnc3c(N)ncnc32)C(=O)Cn2cnc3c(N)ncnc32)C(=O)Cn2ccc(N)nc2=O)C(=O)Cn2cc(C)c(=O)[nH]c2=O)[C@@H](COC(C)=O)OC(C)=O)[C@H](OC(C)=O)[C@@H](OC(C)=O)[C@H]1OC(C)=O [PNA 6-LBAAc] | – | limited to the kidney only | slower biodistribution | 4 | concentration increased in the kidney | accumulation | > 4
tris N-acetylgalactosamine [tGalNAc, reference compound] | ASGPR mediated cellular uptake | – | – | – | – | – | –
